{"source": "patent US20210094988A1", "about": "(UNIVERSITY OF FLORIDA RESEARCH FOUNDATION, published 2021)", "proteins": {"B1": {"name": "recombinant SP-free Coprinus comatus Y3 protein (monomer) (other)", "chain": "QDPLSCYDNFGNRDVAACARFIDDFCDTLTPNIYRPRDNGQRCYVVNGHKCDFTVFNTNNGGSPIRASTPNCKTVLRAAANRCPTGGRGKINPSAPFLFAIDPNDGDCSTDF", "modifications": "pyroglutamic acid (PCA) formed from Gln19; four intramolecular disulfide bridges Cys24-Cys101, Cys36-Cys69, Cys61-Cys126, Cys44-Cys90", "notes": "also called recombinant Y3; mature recombinant Y3 protein"}}, "target": "the molecule itself", "experiment": "X-ray crystallography, homodimer in the crystal"}
{"protein": "B1", "values": [{"measurement": "binding result", "result": "binds"}]}
